# Data reported in IntAct's records for PubMed 16782870.
# B1: Proliferating cell nuclear antigen (Saccharomyces cerevisiae), P15873 (parent)
# chain: MLEAKFEEASLFKRIIDGFKDCVQLVNFQCKEDGIIAQAVDDSRVLLVSLEIGVEAFQEYRCDHPVTLGMDLTSLSKILRCGNNTDTLTLIADNTPDSIILLFEDTKKDRIAEYSLKLMDIDADFLKIEELQYDSTLSLPSSEFSKIVRDLSQLSDSINIMITKETIKFVADGDIGSGSVIIKPFVDMEHPETSIKLEMDQPVDLTFGAKYLLDIIKGSSLSDRVGIRLSSEAPALFQFDLKSGFLQFFLAPKFNDEE
# B2: Proliferating cell nuclear antigen (Saccharomyces cerevisiae), P15873 (parent)
# chain: B1 chain
# partner: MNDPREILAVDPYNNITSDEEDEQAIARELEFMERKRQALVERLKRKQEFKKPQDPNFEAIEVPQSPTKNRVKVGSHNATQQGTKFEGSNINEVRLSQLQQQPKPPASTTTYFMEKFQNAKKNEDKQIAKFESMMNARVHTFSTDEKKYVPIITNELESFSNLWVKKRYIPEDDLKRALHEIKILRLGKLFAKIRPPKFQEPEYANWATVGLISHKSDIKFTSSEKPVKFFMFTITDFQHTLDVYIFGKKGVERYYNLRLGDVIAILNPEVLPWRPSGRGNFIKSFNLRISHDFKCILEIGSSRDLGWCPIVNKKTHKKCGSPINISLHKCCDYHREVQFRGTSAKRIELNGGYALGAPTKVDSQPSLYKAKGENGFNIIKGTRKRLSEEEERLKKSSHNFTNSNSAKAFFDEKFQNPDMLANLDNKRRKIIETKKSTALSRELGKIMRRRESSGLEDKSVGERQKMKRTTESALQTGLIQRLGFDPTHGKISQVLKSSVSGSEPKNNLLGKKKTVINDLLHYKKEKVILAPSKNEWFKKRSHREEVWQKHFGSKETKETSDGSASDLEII
# B3: Minichromosome maintenance protein 10 (Saccharomyces cerevisiae), P32354 (parent)
# chain: B2 partner
# Variants of: B1
# Details: with dpod3_yeast POL32, P47110
# Chain of dpod3_yeast POL32, P47110 (P47110 whole entry): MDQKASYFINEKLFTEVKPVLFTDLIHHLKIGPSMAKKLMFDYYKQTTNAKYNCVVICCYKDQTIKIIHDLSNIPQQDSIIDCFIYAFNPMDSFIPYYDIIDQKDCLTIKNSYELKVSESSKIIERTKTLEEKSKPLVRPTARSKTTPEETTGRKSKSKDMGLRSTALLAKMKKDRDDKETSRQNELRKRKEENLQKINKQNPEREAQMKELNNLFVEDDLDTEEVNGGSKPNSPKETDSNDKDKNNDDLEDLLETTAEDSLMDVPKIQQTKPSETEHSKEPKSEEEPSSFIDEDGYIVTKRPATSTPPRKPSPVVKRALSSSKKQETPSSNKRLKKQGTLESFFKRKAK
row,Variant,effect of a mutation on the interaction
1,MLEAKFEEASLFKRIIDGFKDCVQLVNFQCKEDGIIAQAVDDSRVLLVSLEIGVEAFQEYRCDHPVTLGMDLTSLSKILRCGNNTDTLTLIADNTPDSIILLFEDTKKDRIAEYSLKLMDIDADFLKIEELQADSTLSLPSSEFSKIVRDLSQLSDSINIMITKETIKFVADGDIGSGSVIIKPFVDMEHPETSIKLEMDQPVDLTFGAKYLLDIIKGSSLSDRVGIRLSSEAPALFQFDLKSGFLQFFLAPKFNDEE [Y133A],decreasing interaction
2,MLEAKFEEASLFKRIIDGFKDCVQLVNFQCKEDGIIAQAVDDSRVLLVSLEIGVEAFQEYRCDHPVTLGMDLTSLSKILRCGNNTDTLTLIADNTPDSIILLFEDTKKDRIAEYSLKLMDIDADFLKIEELQLDSTLSLPSSEFSKIVRDLSQLSDSINIMITKETIKFVADGDIGSGSVIIKPFVDMEHPETSIKLEMDQPVDLTFGAKYLLDIIKGSSLSDRVGIRLSSEAPALFQFDLKSGFLQFFLAPKFNDEE [Y133L],decreasing interaction
3,MLEAKFEEASLFKRIIDGFKDCVQLVNFQCKEDGIIAQAVDDSRVLLVSLEIGVEAFQEYRCDHPVTLGMDLTSLSKILRCGNNTDTLTLIADNTPDSIILLFEDTKKDRIAEYSLKLMDIDADFLKIEELQYDSTLSLPSSEFSKIVRDLSQLSDSINIMITKETIKFVADGDIGSGSVIIKPFVDMEHPETSIKLEMDQPVDLTFGAKYLLDIIKGSSLSDRVGIRLSSEAPALFQFDLKSGFLQFFLVPKFNDEE [A251V],decreasing interaction

# Variants of: B2
# Details: with mcm10_yeast MCM10, P32354
row,Variant,effect of a mutation on the interaction
1,MLEAKFEEASLFKRIIDGFKDCVQLVNFQCKEDGIIAQAVDDSRVLLVSLEIGVEAFQEYRCDHPVTLGMDLTSLSKILRCGNNTDTLTLIADNTPDSIILLFEDTKKDRIAEYSLKLMDIDADFLKIEELQYDSTLSLPSSEFSKIVRDLSQLSDSINIMITKETIKFVADGDIGSGSVIIKPFVDMEHPETSIKLEMDQPVDLTFGAKYLLDIIKGSSLSDRVGIRLSSEAPALFQFDLKSGFLQFFLVPKFNDEE [A251V],disrupting interaction
2,MLEAKFEEASLFKRIIDGFKDCVQLVNFQCKEDGIIAQAVDDSRVLLVSLEIGVEAFQEYRCDHPVTLGMDLTSLSKILRCGNNTDTLTLIADNTPDSIILLFEDTKKDRIAEYSLKLMDIDADFLKIEELQADSTLSLPSSEFSKIVRDLSQLSDSINIMITKETIKFVADGDIGSGSVIIKPFVDMEHPETSIKLEMDQPVDLTFGAKYLLDIIKGSSLSDRVGIRLSSEAPALFQFDLKSGFLQFFLAPKFNDEE [Y133A],decreasing interaction

# Variants of: B3
# Details: with pcna_yeast POL30, P15873
row,Variant,effect of a mutation on the interaction
1,MNDPREILAVDPYNNITSDEEDEQAIARELEFMERKRQALVERLKRKQEFKKPQDPNFEAIEVPQSPTKNRVKVGSHNATQQGTKFEGSNINEVRLSQLQQQPKPPASTTTYFMEKFQNAKKNEDKQIAKFESMMNARVHTFSTDEKKYVPIITNELESFSNLWVKKRYIPEDDLKRALHEIKILRLGKLFAKIRPPKFQEPEYANWATVGLISHKSDIKFTSSEKPVKFFMFTITDFQHTADVYIFGKKGVERYYNLRLGDVIAILNPEVLPWRPSGRGNFIKSFNLRISHDFKCILEIGSSRDLGWCPIVNKKTHKKCGSPINISLHKCCDYHREVQFRGTSAKRIELNGGYALGAPTKVDSQPSLYKAKGENGFNIIKGTRKRLSEEEERLKKSSHNFTNSNSAKAFFDEKFQNPDMLANLDNKRRKIIETKKSTALSRELGKIMRRRESSGLEDKSVGERQKMKRTTESALQTGLIQRLGFDPTHGKISQVLKSSVSGSEPKNNLLGKKKTVINDLLHYKKEKVILAPSKNEWFKKRSHREEVWQKHFGSKETKETSDGSASDLEII [L242A],disrupting interaction
2,MNDPREILAVDPYNNITSDEEDEQAIARELEFMERKRQALVERLKRKQEFKKPQDPNFEAIEVPQSPTKNRVKVGSHNATQQGTKFEGSNINEVRLSQLQQQPKPPASTTTYFMEKFQNAKKNEDKQIAKFESMMNARVHTFSTDEKKYVPIITNELESFSNLWVKKRYIPEDDLKRALHEIKILRLGKLFAKIRPPKFQEPEYANWATVGLISHKSDIKFTSSEKPVKFFMFTITDFQHTYDVYIFGKKGVERYYNLRLGDVIAILNPEVLPWRPSGRGNFIKSFNLRISHDFKCILEIGSSRDLGWCPIVNKKTHKKCGSPINISLHKCCDYHREVQFRGTSAKRIELNGGYALGAPTKVDSQPSLYKAKGENGFNIIKGTRKRLSEEEERLKKSSHNFTNSNSAKAFFDEKFQNPDMLANLDNKRRKIIETKKSTALSRELGKIMRRRESSGLEDKSVGERQKMKRTTESALQTGLIQRLGFDPTHGKISQVLKSSVSGSEPKNNLLGKKKTVINDLLHYKKEKVILAPSKNEWFKKRSHREEVWQKHFGSKETKETSDGSASDLEII [L242Y],decreasing interaction
3,MNDPREILAVDPYNNITSDEEDEQAIARELEFMERKRQALVERLKRKQEFKKPQDPNFEAIEVPQSPTKNRVKVGSHNATQQGTKFEGSNINEVRLSQLQQQPKPPASTTTYFMEKFQNAKKNEDKQIAKFESMMNARVHTFSTDEKKYVPIITNELESFSNLWVKKRYIPEDDLKRALHEIKILRLGKLFAKIRPPKFQEPEYANWATVGLISHKSDIKFTSSEKPVKFFMFTITDFQHTLDVAIFGKKGVERYYNLRLGDVIAILNPEVLPWRPSGRGNFIKSFNLRISHDFKCILEIGSSRDLGWCPIVNKKTHKKCGSPINISLHKCCDYHREVQFRGTSAKRIELNGGYALGAPTKVDSQPSLYKAKGENGFNIIKGTRKRLSEEEERLKKSSHNFTNSNSAKAFFDEKFQNPDMLANLDNKRRKIIETKKSTALSRELGKIMRRRESSGLEDKSVGERQKMKRTTESALQTGLIQRLGFDPTHGKISQVLKSSVSGSEPKNNLLGKKKTVINDLLHYKKEKVILAPSKNEWFKKRSHREEVWQKHFGSKETKETSDGSASDLEII [Y245A],disrupting interaction
